Substrate in this data set: O=S(O)(O)=S
Put plainly: purified protein. It is filed as biochemical, Escherichia coli. The note with it: 100 mM GSH fixed, 0.4 mM lead acetate, 100 mM HEPES pH 7.4, 37 °C.

B1: GlpE (Escherichia coli K-12) (protein)
chain: MDQFECINVADAHQKLQEKEAVLVDIRDPQSFAMGHAVQAFHLTNDTLGAFMRDNDFDTPVMVMCYHGNSSKGAAQYLLQQGYDVVYSIDGGFEAWQRQFPAEVAYGA
notes: intact gene (324 bp), C-terminal His6 tag kept, pET30a, E. coli BL21(DE3); Ni-NTA and Superdex 200
On to B1, for which the Michaelis-Menten constant (Km) (commonly the substrate concentration at which the rate is half of its maximum) worked out at 33.6 ± 7.0 mM; the kcat (commonly the number of substrate molecules converted per active site and unit of time at saturation) worked out at 0.02 s⁻¹; the kcat/Km (usually the turnover number divided by the Michaelis constant) was 0.7 M⁻¹ s⁻¹.

B2: ΔNS-PspE (Escherichia coli K-12) (protein)
chain: AEHWIDVRVPEQYQQEHVQGAINIPLKEVKERIATAVPDKNDTVKVYCNAGRQSGQAKEILSEMGYTHVENAGGLKDIAMPKVKG
notes: Ni-NTA and Superdex 200
In the case of B2, the Km was found to be 7.8 ± 1.6 mM, the kcat was found to be 0.04 s⁻¹ and the kcat/Km came to 4.8 M⁻¹ s⁻¹.

The record behind these values is article PMC10215317, “The Rhodanese PspE Converts Thiosulfate to Cellular Sulfane Sulfur in Escherichia coli” (Antioxidants, 2023).
